In patent US20210246204A1 (Alector, published 2021):
Where two headings read alike, the source gives them in different places.

Key:
[1] = target: T1, histidine-tagged human Siglec-7 (NovoProtein) (human, UniProt Q9Y286 19-353); assay: BLI (ForteBio), antibody captured; Table 2 experiment; antibody captured on anti-IgG Fc Biosensors, 0-100 nM His-tagged Siglec-7
T1 construct: Bought protein; also called recombinant human Siglec-7; recombinant Siglec-7; not shown: histidine tag
Method: (§1) In this assay, the humanized antibodies were compared directly to S7AB. Briefly, the antibodies were captured on anti-human or anti-mouse IgG Fc Biosensors (Pall ForteBio). Varying concentrations (0-100 nM) of histidine-tagged human Siglec-7 (NovoProtein) were then bound to the captured anti-Siglec-7 surface (200 s association time, 900 s dissociation time). Multi-concentration kinetic analysis was performed using a 1:1 interaction model to extract association and dissociation rate constants (kₐ and kd, respectively) for each antibody. Apparent affinity constants (KD) were calculated from the ratio kd/kₐ.

[2] = target: T2, human Siglec-7 on primary human monocyte-derived dendritic cells (human, UniProt Q9Y286 19-467); assay: cell-based or functional assay
[3] = target: T1, histidine-tagged human Siglec-7 …; assay: BLI (ForteBio), antibody captured
Method: as §1

[4] = target: T2, human Siglec-7 on primary human …; assay: cell-based or functional assay; remark: listed apart in the source
[5] = target: T1, histidine-tagged human Siglec-7 …; assay: BLI, antibody captured
In short: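 Antibodies captured on anti-human or anti-mouse IgG Fc biosensors; His-tagged human Siglec-7 flowed at 0–100 nM (200 s association, 900 s dissociation). ka and kd from 1:1 multi-concentration fit; apparent KD = kd/ka.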

[6] = target: T2, human Siglec-7 on primary human …; assay: flow cytometry, primary human dendritic cells
Method: The 12 humanized antibodies of S7AB were evaluated for binding to primary dendritic cells by flow cytometry. Monocytes were isolated from blood from healthy human donors using the RosetteSep™ monocyte isolation antibody cocktail (StemCell Technologies). The isolated monocytes were differentiated into dendritic cells with 100 ng/mL GM-CSF and 100 ng/mL IL-4 (Peprotech). Dendritic cells were incubated with dilutions of the anti-Siglec-7 antibodies for 30 minutes on ice in the dark, followed by a 30-minute incubation with a fluorescently-conjugated anti-human IgG secondary antibody. Cells were washed twice in FACS buffer (PBS+2% FBS, 2 mM EDTA), and flow cytometry was performed on a BD FACS Canto. Data were analyzed using FlowJo software (Ashland, Oreg.).

[7] = target: T2, human Siglec-7 on primary human …; assay: cell-based or functional assay; remark: listed apart in the source

T2 sequence (Q9Y286 19-467): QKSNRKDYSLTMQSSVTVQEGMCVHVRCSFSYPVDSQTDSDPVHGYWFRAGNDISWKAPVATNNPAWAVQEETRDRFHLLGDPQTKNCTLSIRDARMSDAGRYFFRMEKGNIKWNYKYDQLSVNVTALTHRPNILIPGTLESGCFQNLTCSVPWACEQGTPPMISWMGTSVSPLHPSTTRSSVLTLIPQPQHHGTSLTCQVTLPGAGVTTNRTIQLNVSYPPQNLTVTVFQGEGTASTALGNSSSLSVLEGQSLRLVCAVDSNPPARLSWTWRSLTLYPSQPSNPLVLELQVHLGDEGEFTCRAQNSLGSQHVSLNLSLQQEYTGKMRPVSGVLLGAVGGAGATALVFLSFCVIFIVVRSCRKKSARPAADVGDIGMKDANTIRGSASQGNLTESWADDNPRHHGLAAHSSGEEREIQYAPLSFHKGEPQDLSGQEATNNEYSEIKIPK
T1 sequence (Q9Y286 19-353 limits assumed): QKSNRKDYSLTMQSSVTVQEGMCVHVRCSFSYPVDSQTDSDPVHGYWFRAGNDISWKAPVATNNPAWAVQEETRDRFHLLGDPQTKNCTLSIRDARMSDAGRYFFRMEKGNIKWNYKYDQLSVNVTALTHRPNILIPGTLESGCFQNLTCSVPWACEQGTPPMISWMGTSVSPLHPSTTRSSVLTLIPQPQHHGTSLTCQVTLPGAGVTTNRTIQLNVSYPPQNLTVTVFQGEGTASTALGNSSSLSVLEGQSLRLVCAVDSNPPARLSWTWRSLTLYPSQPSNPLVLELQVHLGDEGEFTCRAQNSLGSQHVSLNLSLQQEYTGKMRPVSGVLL

| Binder | Kd [1] | Fold increase in potency compared to Chimeric Ab [2] | Maximal downregulation (% Siglec-7 remaining) [2] | Receptor downregulation, (EC50) (pM) [2] | koff [3] | kon [3] | Receptor downregulation, (EC50) (pM) [4] | Kd [5] | koff [5] | kon [5] | EC50 [6] | Maximal downregulation (% Siglec-7 remaining) [7] | Receptor downregulation, (pM, EC50) [7] | Kd [3] |
| --- | --- | --- | --- | --- | --- | --- | --- | --- | --- | --- | --- | --- | --- | --- |
| S7AB-H8 (antibody, V domains shown, also called parental humanized antibody) VH: QVQLVQSGAEVKKPGASVKISCKASGYAFTNCWMNWVRQAPGQGLEWIGRIFPGNGHTNYAQKFQGRATLTEDTSTSTAYMELSSLRSEDTAVYYCARDYSDYYFDYWGQGTLVTVSS VL: DIQMTQSPSSLSASVGDRVTITCRASQDINTYLNWYQQKPGKAPKLLIYYTSRLHSGVPSRFSGSGSGTDYTLTISSLQPEDFATYYCQQGNTLPWTFGQGTKLEIK | 0.86 nM | 3 fold | 18.3% | 340 pM | 0.000125 s⁻¹ | 145000 M⁻¹ s⁻¹ | 395 pM | 1.05 nM | 0.000174 s⁻¹ | 166000 M⁻¹ s⁻¹ | 1.5 nM | – | – | – |
| S7AB-H8.44 huIgG1 N297A (antibody, V domains shown) VH: QVQLVQSGAEVKKPGASVKVSCKASGYAFTAAWMNWVRQAPGQGLEWIGRIFPGLGHTNYAQKFQGRATLTEDTSTSTAYMELSSLRSEDTAVYYCARDYSDYYFDYWGQGTLVTVSS VL: DIQMTQSPSSLSASVGDRVTITCRGSQDINTYLNWYQQKPGKAPKLLIYYTSRLHSGVPSRFSGSGSGTDYTLTISSLQPEDFATYYCQQGNILPWTFGQGTKLEIK | – | – | – | – | – | – | – | – | – | – | – | 2.9% | 68.6 pM | – |
| S7AB-H9 (antibody, V domains shown) VH: QVQLVQSGAEVKKPGASVKISCKASGYAFTNCWMNWVRQAPGQGLEWIGRIFPGNGHTNYAQKFQGRATLTEDTSTSTAYMELSSLRSEDTAVYYCARDYSDYYFDYWGQGTLVTVSS VL: DVQMTQSPSSLSASVGDRVTITCRASQDINTYLNWYQQKPGKAPKLLIYYTSRLHSGVPSRFSGSGSGTDYTLTISSLQPEDFATYYCQQGNTLPWTFGQGTKLEIK | – | – | – | – | 0.000112 s⁻¹ | 150000 M⁻¹ s⁻¹ | 432 pM | – | – | – | 1.5 nM | – | – | 0.74 nM |

The remaining lines, values ahead:

| Kd [1] | Fold increase in potency compared to Chimeric Ab [2] | Maximal downregulation (% Siglec-7 remaining) [2] | Receptor downregulation, (EC50) (pM) [2] | koff [3] | kon [3] | Receptor downregulation, (EC50) (pM) [4] | Kd [5] | koff [5] | kon [5] | EC50 [6] | Maximal downregulation (% Siglec-7 remaining) [7] | Receptor downregulation, (pM, EC50) [7] | Kd [3] | Binder |
| --- | --- | --- | --- | --- | --- | --- | --- | --- | --- | --- | --- | --- | --- | --- |
| – | – | – | – | 0.000152 s⁻¹ | 150000 M⁻¹ s⁻¹ | 447 pM | – | – | – | 5.6 nM | – | – | 1.01 nM | S7AB-H12 (antibody, V domains shown) VH: QVQLVQSGAEVKKPGASVKISCKASGYAFTNCWMNWVRQAPGQGLEWIGRIFPGNGHTNYAQKFQGRATLTEDTSTSTAYMELSSLRSEDTAVYYCARDYSDYYFDYWGQGTLLTVSS VL: DVQMTQSPSSLSASVGDRVTITCRASQDINTYLNWYQQKPGKAPKLLIYYTSRLHSGVPSRFSGSGSGTDYTLTISSLQPEDFATYYCQQGNTLPWTFGQGTKLEIK |
| – | – | – | – | 0.000172 s⁻¹ | 160000 M⁻¹ s⁻¹ | 411 pM | – | – | – | 1.2 nM | – | – | 1.07 nM | S7AB-H11 (antibody, V domains shown) VH: QVQLVQSGAEVKKPGASVKISCKASGYAFTNCWMNWVRQAPGQGLEWIGRIFPGNGHTNYAQKFQGRATLTEDTSTSTAYMELSSLRSEDTAVYYCARDYSDYYFDYWGQGTLLTVSS VL: DIQMTQSPSSLSASVGDRVTITCRASQDINTYLNWYQQKPGKAPKLLIYYTSRLHSGVPSRFSGSGSGTDYTLTISSLQPEDFATYYCQQGNTLPWTFGQGTKLEIK |
